According to the Human Domainome abundance scans (Beltran et al. 2025):

B1: COUP transcription factor 1, residues 83 to 159; numbered along this chain, P10589 (parent)
chain: HIECVVCGDKSSGKHYGQFTCEGCKSFFKRSVRRNLTYTCRANRNCPIDQHHRNQCQYCRLKKCLKVGMRREAVQRG

Variants of: B1
Assay: abundance fitness (aPCA) (normalised: wild type 0, dead -1); higher = more abundant; growth selection in yeast, the domain comes from the species named
Settings: Homo sapiens

Abundance fitness of substitutions, site by site:
Y16: I -0.297 | K -0.209 | R -0.31 | Q 0.096 | G -0.157 | W 0.132 | L -0.152 | A -0.441 | N -0.539 | S -0.047 | P -0.355 | V -0.151 | E -0.05 | C 0.074 | F 0.201 | M -0.154 | D 0.111 | T -0.274
C21: D -1.03 | Y -0.974 | R -0.845 | M -1.01 | T -0.742 | H -0.775 | L -0.9 | E -0.929 | I -0.999 | S -0.757 | N -0.61 | V -1.09 | K -0.818 | G -0.744 | P -0.923 | A -0.707 | Q -0.371
E22: P -0.038 | G 0.089 | I -0.495 | R -0.504 | Q 0.181 | V -0.064 | F -0.226 | D -0.025 | W -0.061 | Y -0.342 | H -0.504 | L -0.089 | M 0.01
C4: L -1.05 | A -1.04 | Q -1.25 | D -0.724 | S -0.515 | N -1.17 | F -0.939 | K -0.775 | V -0.672 | Y -0.9 | W -0.965 | I -0.998 | T -0.635 | H -1.23 | P -0.833 | G -0.731 | M -0.521
G8: V -0.791 | H -0.22 | N -0.045 | A 0.016 | R 0.014 | K 0.165 | M -0.078 | C -0.182 | L 0.042 | T -0.237 | S 0.077 | W -0.218 | Q 0.146 | D 0.177
T20: W -0.058 | K -0.868 | G -0.242 | E -0.116 | Y -0.165 | S 0.067 | P -0.402 | V 0.156 | L -0.084 | N -0.191 | I 0.232 | M -0.079 | H -0.541 | D -1.13 | A -0.051 | F -0.106 | Q -0.382 | C 0.163
K10: C -0.105 | T 0.056 | M -0.067 | D 0.16 | F -0.029 | W -0.233 | S -0.153 | E -0.104 | R -0.214 | Q 0.022 | V -0.235 | A -0.332 | H -0.288 | G -0.114 | Y 0.045 | L -0.313 | P 0.051
D9: I -0.203 | S -0.02 | P -0.863 | C -0.625 | F -0.045 | A -0.128 | G -0.057 | T -0.047 | M 0.065 | L -0.234 | W -0.14 | H -0.636 | N -0.099 | Q 0.104 | R -0.018 | Y -0.381 | K -0.083 | V -0.304
K14: Q 0.274 | S 0.174 | H 0.524 | M 0.016 | R -0.217 | G -0.315 | N 0.019 | L 0.111 | Y -0.068 | P 0.201 | V 0.115 | W -0.423 | T -0.113 | E 0.417 | D 0.228
C7: I -0.912 | K -0.509 | T -0.95 | E -0.659 | F -0.942 | N -0.562 | P -1.17 | A -0.692 | S -0.803 | M -0.84 | G -0.733 | L -0.843 | V -0.597 | W -0.821 | R -0.802 | Y -0.268 | D -0.867
V5: S 0.149 | G 0.012 | Q 0.252 | Y 0.393 | W 0.003 | L 0.192 | E -0.042 | I 0.314 | R 0.295 | C -0.027 | H 0.185 | T 0.104 | P 0.381 | K 0.31 | D -0.081 | A 0.228 | F 0.199 | N 0.152
V6: G -0.807 | K -1.09 | R -0.974 | W -0.545 | F -0.581 | L -0.889 | T -0.743 | Q -0.802 | P -0.705 | S -0.819 | A -0.458 | M -1.06 | Y -0.439 | E -0.836 | D -0.736 | I -0.074
H15: Q -0.052 | G -0.101 | D -0.226 | T -0.28 | N 0.148 | R -0.364 | V -0.135 | E 0.202 | A -0.029 | S -0.212 | W 0.196 | C -0.362 | P 0.125 | K -0.857 | Y -0.144 | L 0.001 | M 0.548
S12: L -0.247 | I -0.027 | C -0.578 | T 0.165 | E 0.1 | K -0.194 | Q 0.007 | H -0.096 | W -0.675 | V 0.076 | R -0.205 | Y -0.489 | P -0.094 | M -0.113 | N 0.003 | A -0.018 | G 0.021
Q18: M 0.067 | A 0.098 | F 0.151 | C 0.187 | W -0.459 | S -0.028 | K -0.031 | I -0.051 | D 0.08 | Y -0.389 | V 0.261 | E 0.143 | P 0.079 | R -0.041 | N -0.345 | G -0.061 | L 0.01 | T -0.137
F19: H -0.037 | T -0.094 | E 0.166 | V -0.269 | G -0.53 | Y 0.352 | Q 0.125 | L -0.129 | W -0.01 | R -0.098 | I -0.279 | C -0.216 | M -0.149 | D -0.052 | A -0.101 | S 0.032
E3: V -0.536 | S -0.052 | R -0.408 | P -0.279 | T -0.058 | W -0.319
S11: Q 0.01 | G -0.071 | F 0.085 | C 0.182 | Y 0.177 | N -0.155 | E -0.314 | W -0.236 | A -0.184 | H 0.314 | L -0.281 | M -0.101 | R -0.377 | V -0.399 | T -0.044 | D -0.28
G23: T -0.009 | Q 0.031 | R -0.081 | L -0.544 | D 0.418 | H 0.287 | S -0.174 | F 0.044 | K -0.044 | C 0.001 | V -0.338 | A -0.153
G13: H -0.306 | M -0.049 | T -0.115 | P -0.175 | N -0.068 | V -0.288 | E 0.089 | C -0.95 | A 0.171 | F -0.206 | Q 0.074 | I -0.199 | D 0.053 | L -0.358 | W -1.04 | R -0.243 | S -0.193
G17: L -0.437 | A -0.358 | S -0.191 | I -0.515 | D -0.072 | N -0.165 | Y -0.396 | P -0.572 | R -0.421 | Q 0.044 | V -0.421 | M -0.703 | H -0.459 | C -0.274 | E -0.156 | T -0.319 | K -0.452
